{"source": "paper PMC7642679", "assay_in_all_cases": "SEC", "key": {"[1]": {"target": "spike-6P D614G with the RBD replacement S373P (SARS-CoV-2)"}, "[2]": {"target": "spike-6P D614G with the RBD replacement G446V (SARS-CoV-2)"}, "[3]": {"target": "spike-6P D614G with the RBD replacement A419V (SARS-CoV-2)"}, "[4]": {"target": "spike-6P D614G with the RBD replacement R408T (SARS-CoV-2)"}, "[5]": {"target": "spike-6P D614G with the RBD replacement A522V (SARS-CoV-2)"}, "[6]": {"target": "spike-6P with the D614G substitution (SARS-CoV-2)"}, "[7]": {"target": "spike-6P D614G with the RBD replacement E484Q (SARS-CoV-2)"}, "[8]": {"target": "spike-6P D614G with the RBD replacement F338L (SARS-CoV-2)"}, "[9]": {"target": "spike-6P (HexaPro) SARS-CoV-2 spike protein construct (SARS-CoV-2)"}}}
{"substance": "spike-6P D614G with the RBD replacement S373P", "values": [{"measurement": "stoichiometry N", "setting": "[1]", "result": 3}]}
{"substance": "spike-6P D614G with the RBD replacement G446V", "values": [{"measurement": "stoichiometry N", "setting": "[2]", "result": 3}]}
{"substance": "spike-6P D614G with the RBD replacement A419V", "values": [{"measurement": "stoichiometry N", "setting": "[3]", "result": 3}]}
{"substance": "spike-6P D614G with the RBD replacement R408T", "values": [{"measurement": "stoichiometry N", "setting": "[4]", "result": 3}]}
{"substance": "spike-6P D614G with the RBD replacement A522V", "values": [{"measurement": "stoichiometry N", "setting": "[5]", "result": 3}]}
{"substance": "spike-6P with the D614G substitution", "values": [{"measurement": "stoichiometry N", "setting": "[6]", "result": 3}]}
{"substance": "spike-6P D614G with the RBD replacement E484Q", "values": [{"measurement": "stoichiometry N", "setting": "[7]", "result": 3}]}
{"substance": "spike-6P D614G with the RBD replacement F338L", "values": [{"measurement": "stoichiometry N", "setting": "[8]", "result": 3}]}
{"substance": "spike-6P (HexaPro) SARS-CoV-2 spike protein construct", "values": [{"measurement": "stoichiometry N", "setting": "[9]", "result": 3}]}
